Results published in the RNAGym collection of RNA variant scans (doi:10.1073/pnas.2313332121).

B1: TPR t1 (parent)
chain: GACCAAUCUGCCCUCAGAGCUCGAGAACAUCUUCGGAUGCAGAGGAGGCAGGCUUCGGUGGCGCGAUAGCGCCAACGUCCUCAACCUCCAAUGCAUCCCACCACAUGAUGAUGCCUGAAGAGCCUUGGUUUUUUG

Variants of: B1
Assay: polymerase ribozyme fitness, log enrichment relative to wild type (log ratio); higher = more active; in vitro selection for triplet polymerase activity
Summary of the method: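 Genotype fitness is the logarithm of its enrichment divided by wild-type enrichment, using inverse-variance-weighted averages of replicates. That logarithm is base 2. Enrichment was measured by Illumina sequencing of input and output libraries from one triplicate in vitro selection round, with frozen incubation at −7 °C, on PCR-built, transcribed mutant libraries of each subunit of a heterodimeric triplet polymerase ribozyme, retaining genotypes with ≥10 input reads and ≥1 read per output.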

Point of comparison: GACCAAUCUGCCCUCAGAGCUCGAGAACAUCUUCGGAUGCGGAGGAGGCAGGCUUCGGUGGCGUGAUAGCGCCAACGUCCACAACCUCCAAUGCAUCCCACCACAUGAUGAUGCCUGAAGAGCCUUGGUUUUUUG, “polymerase ribozyme fitness (log ratio)” value -2.25. Against it:
- GACCAAUCUGCCCUCAGAGCUCGAGAACAUCUUCGGAUGCGGUGGAGGCAGGCUUCGGUGGCGCGAUAGUGCCAACGUCCUCAACCUCCACUGCAUCCCACCACAUGAUGAUGCCUGAAGAGCCUUGGUUUUUUG — lower, -3.27
- GACCAAUCUGCCCUCAGAGCUCGAGAACAUCUUCGGAUGCCGAGGAGGCAGGCUUCGGUGGCGCGAUAGCGCCAACGUCCUCAACCUCCAAUGCAUCCCACCACAUGAUGAUGCCUGAAGAGCCUUGGUUUUGUG — higher, -1.16
- GACCAAUCUGCCCUCAGAGCUCGAGAACAUCUUCGGAUGCGGAGGAGGCAGGCUUUGGUGGCGCGAUAGCGACAACGUCCUCAACCUCCAAUGCAUCCCACCACAUGAUGAUACCUGAAGAGCCUUGUUUUUUUG — lower, -5.53
- GACCAAUCUGCCCUCAGAGCUCGAGAACAUCUUCGGAUGCCGAGGAGGCAGGCUUCGGUGGCGCGAUAGCGCCAACGCCCUCAACAUCCAAUGCAUCCCACCACAAGAUGAUGCCUGAAGAGCCUUGGUUUUUUG — higher, -1.09
- GACCAAUCUGCCCUCAGAGCUCGAGAACAUCUUCGGAUGCGGAGGAGGCAGGCUUCGGUGGCGCGAUAGCGACAACGUCCUCAACCUCCAAUGCAUCUCACCACAUGAUGAUGCCUGAAGAGCUUUGGUUUUUUG — higher, 0.986
- GACCAAUCUGCCCUCAGAGCUCGAGAACAUCUUCGGAUGCCGAGGAGGCAGGCUUCGGUGGCGCGAUAGCGCCAACGUCCUCAACCUCCAAAGCAUCCCACCACAUGAUGAUGCCUGAAGAGCCUUGGUUUUUUG — within 0.2 log units, -2.21
- GACCAAUCUGCCCUCAGAGCUCGAGAACAUCUUCGGAUGCCGAGGAGGCAGGCUUCGGUGGCACGAUAUCGCCAACGUCCUCAACCUCCAAUCCAUCCCAACACAUGAUGAUGCCUGAAGAGCCUUGGUUUUUUG — lower, -4.78
- GACCAAUCUGCCCUCAGAGCUCGAGAACAUCUUCGGAUGCCGAGGAGGCAGGCUUCGGUGGCGCGAUAGCGCCAACGUCCUCAACCUCCAAGGCAUCCCACCACAUGAUGAUGCCUGAAUAGCCUUGGCUUUUUG — lower, -2.62
- GACCAAUCUGCCCUCAGAGCUCGAGAACAUCUUCGGAUGCGGAGGAGGCAGGCUUCGGUGGAGCGAUAGCGCCAACGUCCUCAACCUCCAAUGCAUCCCACCACAUGAUGAUGCCUGAAGAGCCUUGGUUUUUUG — higher, -1.85
- GACCAAUCUGCCCUCAGAGCUCGAGAACAUCUUCGGAUGCCGAGGAGGCAGGCUUCGGUGGCGCGAUAGCGCCAACGUCCUCAACCUCCAAUUCAUCCCACCACAUGAUGAUGCCUGAAGAGCCUUGGUUUUUUG — higher, -1.92
- GACCAAUCUGCCCUCAGAGCUCGAGAACAUCUUCGGAUGCGGAGGAGGCAGGCUUGGGUGGCGCGAUACCGCCAACGUCCUCAACCUCCAAUGCAUCCCACCACAUGAUGAUGCCUGAAGAGCCUUGGUUUUGUG — lower, -5.1
- GACCAAUCUGCCCUCAGAGCUCGAGAACAUCUUCGGAUGCGGAGGCGGCAGGCUUCGGUGGCGCGAUAGCGCCAACGUCCUCAACCUUCAAUGCAUCCCACCAUAUGAUGAUGCCUGAAGAGCCUUGGUUUUUUG — higher, -0.948
- GACCAAUCUGCCCUCAGAGCUCGAGAACAUCUUCGGAUGCGGAGGAGGCAGGCUUUGGUGGCGCGAUAGCGGCAACGUCCUCAACCUCCAAUGCAUCCCACCACAUGAUGAUACCUGAAGAGCCUUGUUUUUUUG — lower, -5.35
- GACCAAUCUGCCCUCAGAGCUCGAGAACAUCUUCGGAUGCCGAGGAGGCAGGCUGCGGUGGCGCGCUAGCGCCAACGUCCUCAACCUCCAAUCCAUCCCACCACAUGAUGAUGCCUGAAGAGCCUUGGUUUUUUG — lower, -4.9
- GACCAAUCUGCCCUCAGAGCUCGAGAACAUCUUCGGAUGCGGAGGAGGGAGGCUACGGUGGCGCGAUAGCGCUAACGUCCUCAACCUCCAAUGCAUCCCACCACAUGAUGCUGCCUGAAGAGCCUUGGUUUUUUG — lower, -2.46
- GACCAAUCUGCCCUCAGAGCUCGAGAACAUCUUCGGAUGCCGAGGAGGCAGGCUGCGGCGGCGCGAUAGCGCCAACGUCCUCAACCUCCAAUCCAUCCCACCACAUGAUGAUGCCUGAAGAGCCUUGGUUUUUUG — within 0.2 log units, -2.33
- GACCAAUCUGCCCUCAGAGCUCGAGAACAUCUUCGGAUGCGGAGGAGGCAGGCUUCGGUGGCGCGAUAGCGCCAACGUCCUCUACCUCCAAUGCAUCCUACCACAUGAUGAUGCAUGAAGAGCCUUGGUUGUUUG — lower, -4.22
- GACCAAUCUGCCCUCAGAGCUCGAGAACAUCUUCGGAUGCGGAGGAGGGAGGCUACGGUGGCGCGAUAGCGCCAACGUCCUCAACCUCCAAUGCAUCCCACCACAUGAUGCUGCCUGAAGAGCCUUGGUUUUUUG — higher, -1.63
- GACCAAUCUGCCCUCAGAGCUCGAGAACAUCUUCGGAUGCGGAGGAGGCAGGCUUCGGUGGCGCGAUAGCGCCAACGUCCUCAACCUCCAAUGCAUCCCACCCCAUGAUGAUGCCUGAAGAGCCUUGGUUUUUUG — lower, -5.33
- GACCAAUCUGCCCUCAGAGCUCGAGAACAUCUUCGGAUGCGGAGGAGGCAGGCUUCGGUGGCGCGAUAGCGCCAACGUCCUCAACCUCCAAUGCAUCCCACCACAUGAUGAUGCCUGAAGUGCCUUGGUUUUUUG — higher, 1.72
- GACCAAUCUGCCCUCAGAGCUCGAGAACAUCUUCGGAUGCCGAGGAGGCAGGCUUCGGUGGCGCGAUAGCGCCAACGUCCUCAACCUCCAAUGCAUCCCACCACAUGAUGAUGCCUGAAGAGCCUUGCUUUUUUG — lower, -3.34
- GACCAAUCUGCCCUCAGAGCUCGAGAACAUCUUCGGAUGCCGAGGAGGCAGGCUACGGUGUCGCGAUAGCGCCAACGUCCUCAACCUCCAAUGCAUCCCACUACAUGAUGAUGCCUGAAGAGCCUUGGUUUUUUG — lower, -3.48
- GACCAAUCUGCCCUCAGAGCUCGAGAACAUCUUCGGAUGCGGUGGAGGCAGGCUUCGGUGUCGCGAUAGCGCCAACGUCCUCAACCUGCAAUGGAUCCCACCACAUGAUGAUGCCUAAAGAGCCUUGGUUUUUUG — lower, -7.23
- GACCAAUCUGCCCUCAGAGCUCGAGAACAUCUUCGGAUGCGGAGGAGGCAGGUUUCGGUGGCGCGAUAGCGCCAACGUCCUCAACCUCCAAUGCAUCCCACCACAUGAUGAUGCCUGAAGAGCCUUGGUUUUUUG — higher, -0.653
- GACCAAUCUGCCCUCAGAGCUCGAGAACAUCUUCGGAUGCGGAGGAGGCAGGCUUCGGUGGCGCGAUAGCGCGAACGUCCUCAACCUCCAAUCCAUCCCACCACAUGAUGAUGCCUGAAGAGCCUUGGUUUUUUG — lower, -2.94
- GACCAAUCUGCCCUCAGAGCUCGAGAACAUCUUCGGAUGCGGAGGAGGGAGGCUUCGGGGGCGCGAUAGCGCCAACGUCCUCAACCUCCAAUGCAUCCCACCACAUGAUGAUGCCUGAAGAGCCUUGGUUUUUUG — higher, -1.99
- GACCAAUCUGCCCUCAGAGCUCGAGAACAUCUUCGGAUGCCGAGGAGGCAGGCUUCGGUGGCGCGAUAUCGCCAACGUGCUCAACCUCCAAUGCAUCCCACCACAAGAUGAUGCCUGAAGUGCCUGGGUUUUUUG — higher, -0.691
- GACCAAUCUGCCCUCAGAGCUCGAGAACAUCUUCGGAUGCGGAGGAGGAAGGCUUCGGUGGCGCGAUAGCGCCAACGUCCUCAACCUCCAAUGCAUCCCACCACAUGAUGAUCCCUGAAGAGCUUUGGUUUUUUG — lower, -3.06
- GACCAAUCUGCCCUCAGAGCUCGAGAACAUCUUCGGAUGCGGAGGCGGCAGGCUUCGGUGGCGCGAUAGCGCCAACGUCCUCAACCUCCAAUGCAUCCCACCACAUGAUGAUGCCUGAAGAGCCUUGGUUUUUUG — higher, -1.95
- GACCAAUCUGCCCUCAGAGCUCGAGAACAUCUUCGGAUGCCGAGGAGGCAGGCUUCGGUGGCUCGAUAGCGCCAACGUCCUCAACCUCCAAUCCAUCCCACCACAUGAUGAUGCCUAAAGAGCCUUGGUUUAUUG — lower, -4.71
- GACCAAUCUGCCCUCAGAGCUCGAGAACAUCUUCGGAUGCCGAGGAGGCAGGCUUCGGGGGCGCGAUAGCGCCAACGUUCUCAACCUCCAAUGCAUCCCACCACAUGAUGAUGCCUGAAGAGCAUUGGUUUUUUG — higher, 0.881
- GACCAAUCUGCCCUCAGAGCUCGAGAACAUCUUCGGAUGCGGAGGUGGCAGGCUUCGGUGGCGCGAUAGCGCCAACUUCCUCAACCUCCAAUGCAUCCCACCACAUGAUGAUGCCUGAAGAGCCUUGGUUUUUUG — lower, -3.75
- GACCAAUCUGCCCUCAGAGCUCGAGAACAUCUUCGGAUGCCGAGGAGGCAGGCUUCGGUGGCGCGAUAGCGCCAACGUCCGCAACCUCCAAUGCAUCCCACCACAUGAUGAUGCAUGAAGAGCCUUGGUUUUUUG — lower, -4.91
- GACCAAUCUGCCCUCAGAGCUCGAGAACAUCUUCGGAUGCGGAGGAGGUAGGCUUCGGUGGCGCGAUAGCGCCAACGUCCUCAACCUCCAAUGCAUCCCACCACAUGAUAAUGCCUGAAGAACCUUUGUUUUUUG — lower, -5.4
- GACCAAUCUGCCCUCAGAGCUCGAGAACAUCUUCGGAUGCCGAGGAGGCAGGCUUCGGUGGCGCGAUACCGCCAACGUCCUCAACCUCCAAUGCAUCCCACCACAUGAUGAUGACUGAAGAGCCUUGGUUUUUUG — lower, -3.84
- GACCAAUCUGCCCUCAGAGCUCGAGAACAUCUUCGGAUGCGGAGGAGGCAGGCUUCGGUGGCGCGAUAGCGCCAACGUCCUCAACCUCCAAUGCAUCCCACCACUUGAUGAUGCCUGAAGAGCCUUGGUUUUUUG — lower, -3.3
- GACCAAUCUGCCCUCAGAGCUCGAGAACAUCUUCGGAUGCCGAGGAGGCAGGCUUCGGUGUCGCGAUAGCGCCAACGUCCUCAACCUCCAAUGCAUCCCACCACAUGAUGAUGCCUGAAGAGCCUUGGUUUUUUG — higher, -0.204
- GACCAAUCUGCCCUCAGAGCUCGAGAACAUCUUCGGAUGCGGAGGAGGCAGGCUUAGGUGGCUCGAUAGUGCCAACGUCCUCAACCUCCAAUGCAUCCCACCACAUGAUGAUGCCUGAAGAGCCUUGGUUUUUUG — within 0.2 log units, -2.43
- GACCAAUCUGCCCUCAGAGCUCGAGAACAUCUUCGGAUGCGGAGGAGGCAGGGUUCGGUGGCGCGAUAGCGCCAACGUCCUCACCCUCCAAUGCAUCCCACCACAUGAUGAUGCCUGAAGAGCCUAGGUUUUUUG — lower, -2.86
- GACCAAUCUGCCCUCAGAGCUCGAGAACAUCUUCGGAUGCCGAGGAGGCAGGCUUCGGUGGCGCGAUAGCGCCAACGGCCUCAACCUCCAAUGCAUCCCACCACAUGAUGAUGCCUGAAGAGCCUUGGUUUUUUG — higher, -1.18
- GACCAAUCUGCCCUCAGAGCUCGAGAACAUCUUCGGAUGCCGAGGAGGCAGGCUUCGGUGGCGCGAUAGCGCCAACGUCCUCAACCUCCAAUGCAUCCCACCACAUGAUGAUGCCUUAAGAGCCUUGGUUAUUUG — lower, -4.61
